Where two headings read alike, the source gives them in different places. Starred links: 1 amine or outer side, 2 acyl side, 3 side chain; linkers in the order of their positions; H or OH if unused. Positions of bridges follow the written chain, without caps; N, C: chain ends. Non-standard residues stand in square brackets, D forms with d. Residues, ends and D or L forms follow the SMILES beside them. Primed or numbered codes have the meaning given here. No end group written: not given here. *: point of attachment. FITC = O=C1OC2(c3ccc(O)cc3Oc3cc(O)ccc32)c2ccc(NC(=S)*)cc21; Trimesoyl = O=C(c1cc(C(=O)[*:2])cc(C(=O)[*:3])c1)[*:1]; trimesoyl″ = benzene-1,3,5-tricarbonyl scaffold; Phe(4-F) = N[C@@H](Cc1ccc(F)cc1)C(=O)O; trimesoyl = benzene-1,3,5-tricarbonyl; Nle = CCCC[C@H](N)C(=O)O; Dap = NC[C@H](N)C(=O)O; AEEA = NCCOCCOCC(=O)O; βAla = NCCC(=O)O
Legend:
TNFα-TNFR1 interaction = molecular target: T1, TNFα-TNFR1 interaction (Homo sapiens, UniProt P01375); assay: ELISA inhibition of TNFα-TNFR1 interaction (immobilized biotinylated TNFα, TNFR1-HRP); type: binding; details: inhibition of TNFα-TNFR1 interaction, unlabeled peptides
T1 construct: made in house; host or cells: Escherichia coli (TNFα)
Experimental: Inhibition of TNFα-TNRF1 interaction by ELISA was carried out as previously described (Lian, W.; et al., supra).
Because of its high-throughput capability, FA analysis had been used to generate all of the SAR data described above. […] To confirm the SAR data obtained by FA analysis, some of the compounds in Table 5 (as well as new compounds) were resynthesized without the Lys(FITC) label and employed a more sensitive ELISA-based assay to determine the IC50 values for inhibition of the TNFα-TNFR1 interaction. Briefly, biotinylated TNFα was immobilized onto a NeutrAvidin-coated surface. TNFR1 conjugated with horseradish peroxidase (HRP) (0.5 nM) was added along with different concentrations of a peptide inhibitor. After washing, the amount of bound TNFR1-HRP was quantitated by ELISA. […] In agreement with the FA results, either extension at the C-terminus of β-Ala with another amino acid (C1-67 to C1-70) or side-chain modification of β-Ala (C1-71 to C1-73) decreased TNFα binding.

[1] = tested on: TNFα-induced cell death in WEHI-13VAR fibroblasts (recombinant human TNFα); type: cell-based
Experimental: WEHI-13VAR fibroblasts were purchased from American Type Culture Collection (ATCC). For maintenance, cells were grown in full medium as RPMI-1640 supplemented with 10% FBS and 1% Abs. For toxicity assay, cells were seeded in a 96-well plate at a density of 5×10^3 cells/well in 100 μL of RPMI-1640/1% Abs supplemented with 10% or 5% FBS and allowed to grow overnight. Varying concentrations of recombinant human TNFα (0-250 ng/mL) or commercial mouse TNFα were (0-100 pg/mL) were incubated with 10 μM peptide and actinomycin D (1 μg/mL) in 100 μL of corresponding growth medium for 1 h at 37° C. Next, the medium in the 96-well plate was removed and replaced with the above fresh mixture and the cells were incubated overnight. Next day, 10 μL of the 3-(4, 5-dimethylthiazolyl-2)-2, 5-diphenyltetrazolium bromide (MTT, final concentration 0.5 mg/ml) was added to each well and incubated at 37° C. for 3 h, following by the addition of 100 μL of the MTT solubilization solution. The plate was kept in the incubator overnight to let the formazan crystals to completely dissolve, and the absorbance at 570 nm was measured on a TECAN plate reader. The LD50 was obtained as plotting the viability as a function of the TNFα concentration.
One of the biological functions of TNFα is to induce death signaling. Inhibitors against the TNFα-TNFR interaction are expected to protect cells against TNFα induced cell death. Therefore, anticachexin C1, C1-74, and C1-74-2 through C1-74-5 were compared for their ability to protect cultured WEHI-13 VAR fibroblasts, which are highly sensitive to TNFα in the presence of actinomycin-D, against TNFα-induced cell death (Khabar, K. S. A.; et al., “WEHI-13VAR: A Stable and Sensitive Variant of WEHI 164 Clone 13 Fibrosarcoma for Tumor Necrosis Factor Bioassay.” Immunol. Lett. 1995, 46:107-110). The cells were treated with a fixed concentration of peptides (10 μM) and varying concentrations of TNFα (0-1 μM), and the fraction of live cells was quantitated by the 3-(4,5-dimethylthiazol-2-yl)-2,5-diphenyltetrazolium bromide (MTT) assay. […] The MTT assay was also conducted at a fixed concentration of TNFα (0.4 ng/mL) but varying concentrations of peptides (0-10 μM).

Serum stability test = type: in vitro ADME, human; details: 37° C.
Experimental: Diluted human serum (25%) was centrifuged at 15,000 rpm for 10 min, and the supernatant was collected. A peptide stock solution was diluted into the supernatant to a final concentration of 5 μM and incubated at 37° C. At various time points (0-8 h), 200-μL aliquots were withdrawn and mixed with 50 μL of 15% trichloroacetic acid and 200 μL of acetonitrile. After incubation at 4° C. overnight, the mixture was centrifuged at 15,000 rpm for 10 min in a microcentrifuge, and the supernatant was analyzed by reversed-phase HPLC equipped with an analytical C18 column (Waters). The amount of remaining intact peptide (%, relative that of time zero control) was determined by integrating the area underneath the peptide peak (monitored at 214 nm).

[2] = molecular target: Recombinant TNFα containing an N-terminal 13-aa ybbR tag (human) (UniProt P01375); assay: FA, FITC-peptide + TNFα titration
[3] = molecular target: T2, Recombinant TNFα containing an N-terminal 13-aa ybbR tag (human, UniProt P01375 77-233, biotin at the ybbR tag in the ELISA assays); assay: cell-based or functional assay
[4] = molecular target: T2, Recombinant TNFα containing an …; assay: FA
Experimental: (§1) The FA values were measured on a Molecular Devices Spectramax M5 spectrofluorimeter, with excitation and emission wavelengths at 485 and 525 nm, respectively. Equilibrium dissociation constants (KD) were determined by plotting the FA values as a function of TNFα concentration and fitting the data to the following equation $$Y = \frac{\left(Amin + \left(Amax \times \frac{Q_b}{Q_f} - Amin\right)\left(\frac{(L+x+K_d) - \sqrt{((L+x+K_d)^2 - 4Lx)}}{2L}\right)\right)}{\left(1 + \left(\frac{Q_b}{Q_f} - 1\right)\left(\frac{(L+x+K_d) - \sqrt{((L+x+K_d)^2 - 4Lx)}}{2L}\right)\right)}$$
(§2) where Y is the measured anisotropy at a given TNFα concentration x; L is the bicyclic peptide concentration; Qb/Qf is the correction fact for dye-protein interaction; Amax is the maximum anisotropy when all the peptides are bound to TNFα, while $Amin$ is the minimum anisotropy. […] The FA values were plotted against the competitor peptide concentration to determine the IC$50$ values.

[5] = molecular target: T2, Recombinant TNFα containing an …; assay: FA, FITC-peptide + TNFα titration
[6] = molecular target: T2, Recombinant TNFα containing an …; assay: FA, FITC-peptide + TNFα titration; remark: listed apart in the source
Experimental: as §1, §2

[7] = molecular target: T2, Recombinant TNFα containing an …; assay: FA, FITC-peptide + TNFα titration; remark: listed apart in the source
Experimental: as §1, §2

[8] = molecular target: T2, Recombinant TNFα containing an …; assay: ELISA, inhibition of TNFR1-HRP binding to immobilized biotin-TNFα
Source text: Because of its high-throughput capability, FA analysis had been used to generate all of the SAR data described above. […] Briefly, biotinylated TNFα was immobilized onto a NeutrAvidin-coated surface.

T2 sequence (P01375 77-233): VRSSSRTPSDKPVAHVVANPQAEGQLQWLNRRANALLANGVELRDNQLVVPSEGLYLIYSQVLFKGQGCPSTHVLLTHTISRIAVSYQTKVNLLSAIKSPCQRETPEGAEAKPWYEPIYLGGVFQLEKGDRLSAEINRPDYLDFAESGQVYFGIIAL
Chain of Recombinant TNFα containing an N-terminal 13-aa ybbR tag (human) (P01375 77-233): as above

**Q.** For `CC(=O)[C@@H](Cc1ccccc1)NC(=O)[C@@H](C)NC(=O)C(N)Cc1ccc(F)c(F)c1` (stereo partly shown) [Compound C1-74-3], which IC50 (TNFα-TNFR1 interaction) is on record?
**A.** 150 ± 43 nM

**Q.** And the LD50 [1]?
**A.** 2.6 ± 0.9 ng/mL

**Q.** Which results are given for `CCCC[C@@H]1NC(=O)c2cc3cc(c2)C(=O)NC[C@@H](C(=O)NCCC(N)=O)NC(=O)[C@H](Cc2c[nH]cn2)NC(=O)[C@@H](CCCCN)NC(=O)CNC(=O)[C@@H](Cc2c[nH]cn2)NC(=O)[C@H](Cc2c[nH]c4ccccc24)NC(=O)[C@H](CCCCNC3=O)NC(=O)[C@@H](C)NC(=O)[C@H](Cc2ccc(O)cc2)NC1=O` [Compound C1-74] ([Nle]Y[dA]KW[dH]G[dK]H[Dap][βAla]-NH2; linker N-4-10 via Trimesoyl)?
**A.** IC50 (TNFα-TNFR1 interaction): 70 nM; EC50 [1]: ~1000 nM

**Q.** Which results are given for DRQIKIWFQNRRMKWKKTALDWSWLQTE [Antp-NBD]?
**A.** Time to complete degradation in human serum (Serum stability test): ≤ 2 h; half-life at 5 μM (Serum stability test; human, diluted human serum (25%), supernatant after centrifugation): ~15 min

B1: C1-38 (peptide)
peptide: [Nle][Phe(4-F)][dS]K[Phe(4-F)][dH]G[dK]H[Dap]K(FITC)-NH2
modifications: linker (positions not given here) via trimesoyl; not fully specified (N-terminus, bridges)
**Q.** With B1 as the molecule, how does the Kd [2] read?
**A.** 2100 nM

B2: C1-56 (peptide)
peptide: [Nle]Y[dS]KW[dH]G[dK]H[Dap][dF][AEEA]K(FITC)-NH2
modifications: linker (positions not given here) via trimesoyl; not fully specified (N-terminus, bridges)
**Q.** For B2, which Kd [2] is on record?
**A.** 630 nM

B3: C1-74 (peptide)
peptide: [Nle]Y[dA]KW[dH]G[dK]H[Dap][βAla]-NH2
modifications: linker N-4-10 via trimesoyl
notes: C1-66 with D-Ser3 reverted to D-Ala; also called bicyclic peptide C1-74
**Q.** Which “EC50 of protection of WEHI-13VAR cells from 0.4 ng/mL TNFα, MTT” value [3] does the source give for B3 here?
**A.** ~1000 nM

**Q.** For [Nle]Y[dS]KW[dH]G[dK]H[Dap]K(FITC)-NH2 (linker N-4-10 via trimesoyl″) [C1-35], which “fold increase in affinity against Tyr at position-5” value [4] is on record?
**A.** 3 fold

**Q.** What about the Kd [5] of the same molecule?
**A.** 260 nM

**Q.** And the Kd [6]?
**A.** 260 nM

**Q.** And the Kd [7]?
**A.** 260 nM

**Q.** With [Nle]Y[dS]KW[dH]G[dK]H[Dap]NK(FITC)-NH2 (linker N-4-10 via trimesoyl″, C1-35 core with R11 as printed) [C1-52] as the molecule, how does the “fold reduction in affinity against C1-35” value [4] read?
**A.** 3 fold

**Q.** What about the Kd [7] of the same molecule?
**A.** 790 nM

**Q.** For [Nle]Y[dS]KW[dH]G[dK]H[Dap][βAla]A-NH2 (linker N-4-10 via trimesoyl″, No Lys(FITC) label) [C1-68], which IC50 [8] is on record?
**A.** 2600 nM

— US10913773B2, “Bicyclic peptidyl inhibitor of tumor necrosis factor-alpha” (Ohio State Innovation Foundation, priority 2016, dated 2021)
